From publication PMC5853461, “Transcription factor CitERF71 activates the terpene synthase gene CitTPS16 involved in the synthesis of E-geraniol in sweet orange fruit”
Residue numbers refer to the chain shown, from its start.

B1: GCC-box-like sequence 1 (dsDNA)
DNA 1: GAATGGGCGATAGAGCTCATACTTACCCGCCTCTCTTCACATTCAAACTTCTAATATTA
DNA 2: TAATATTAGAAGTTTGAATGTGAAGAGAGGCGGGTAAGTATGAGCTCTATCGCCCATTC
B2: mGCC-box-like sequence 1 (dsDNA)
DNA 1: B1 DNA 1 with C26A, C27A, C28A
DNA 2: B1 DNA 2 with G32T, G33T, G34T
B3: GCC-box-like sequence 2 (dsDNA)
DNA 1: AATTTACAAAATTATAGAAGTCAAATTACGACGTCGTAAATCTGGCGGGACTTTAATGG
DNA 2: CCATTAAAGTCCCGCCAGATTTACGACGTCGTAATTTGACTTCTATAATTTTGTAAATT
B4: mGCC-box-like sequence 2 (dsDNA)
DNA 1: B3 DNA 1 with G47A, G48A, G49A
DNA 2: B3 DNA 2 with C11T, C12T, C13T

Target: CitERF71 (Citrus sinensis Osbeck (Newhall sweet …, UniProt A0A067HCL9 1-233))
Experiment: EMSA; LightShift Chemiluminescent EMSA kit per manufacturer and Nieuwenhuizen et al. 2015; buffer, salt, pH and temperature not stated
Conditions: protein: recombinant; tags: N-terminal 6xHN (His) tag; label: 3' biotin; blunt

CitERF71 (Citrus sinensis Osbeck, sequence (A0A067HCL9 entry or part of it): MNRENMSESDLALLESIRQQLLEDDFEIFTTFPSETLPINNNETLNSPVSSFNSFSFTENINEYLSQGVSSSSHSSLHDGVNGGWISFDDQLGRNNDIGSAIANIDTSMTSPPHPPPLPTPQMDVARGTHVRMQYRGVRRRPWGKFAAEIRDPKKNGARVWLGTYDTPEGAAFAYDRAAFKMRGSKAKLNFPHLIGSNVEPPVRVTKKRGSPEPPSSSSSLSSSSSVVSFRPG

Binder	binding result
B1	binds
B2	no binding
B3	binds
B4	no binding
